According to publication PMC6170708:

Legend:
[1] = biological target: recombinant HBeAg dimer (construct Cp(−10) 149 C48A.C107A) (Hepatitis B virus (strain not stated)) (UniProt P03147); test: AUC
[2] = biological target: recombinant HBcAg assembly domain dimer (construct Cp1–149.C48A.C107A) (Hepatitis B virus (strain not stated)) (UniProt P03147); test: AUC

Substance: recombinant HBeAg dimer (construct Cp(−10) 149 C48A.C107A) (from UniProt P03147 1-149) (domain or fragment)
- percent of dimers converted to capsids (the pair that is blocked) [1]: 40%

Substance: recombinant HBcAg assembly domain dimer (construct Cp1–149.C48A.C107A) (from UniProt P03147 1-149) (domain or fragment)
- stoichiometry N [2]: 2
